From US20200397816A1, “METHODS TO TREAT INFLAMMATORY AND SMOOTH MUSCLE CELL PROLIFERATION DISORDERS” (THE TRUSTEES OF INDIANA UNIVERSITY, priority 2019, published 2020)
“Also recorded” adds a separate entry of the source.

Tests used:
[1] = system: pSTAT3 (Y705); experiment: EMAP II induced pSTAT3 western blot in RAW 264.7 macrophages; format: cell-based, mouse; conditions: macrophages; EMAP II 24 hours
Protocol: (§1) After appropriate treatments, protein lysates were prepared by using RIPA buffer supplemented with phosphatase and protease inhibitors (Thermo Fischer Scientific). Alpha-tubulin was used as a loading control. For nuclear and cytoplasmic fractionation, NE-PER kit from Thermo Fischer Scientific was used. Western blots were performed according to standard methods and quantified using densitometry using Image Studio Lite software from LI-COR Biosciences.
After appropriate treatments, protein lysates were prepared by using RIPA buffer supplemented with phosphatase and protease inhibitors (Thermo Fisher Scientific). Alpha-tubulin was used as a loading control. For nuclear and cytoplasmic fractionation, NE-PER kit from Thermo Fischer Scientific was used. Western blots were performed according to standard methods and quantified using densitometry using Image Studio Lite software from LI-COR Biosciences.

[2] = system: EGR1; experiment: EGR1 protein western blot (whole cell lysates, nuclear fractions) in RAW 264.7 macrophages; format: cell-based, mouse; conditions: macrophages
Protocol: (§2) RAW 264.7 (ATCC) mouse macrophages and Human Embryonic Kidney (HEK) 293T cells were cultured in DMEM media with 10% fetal bovine serum […] and glutamine HEPES buffer and beta-mercaptoethanol were added to the growth medium used for RAW 264.7 macrophages. Primary human pulmonary artery smooth muscle cells (hPASMC) purchased from Lonza (Walkersville, Md.) were cultured in complete growth medium containing smooth muscle growth media-2 (SmGM-2) with 10% FBS and growth factors provided as a kit by the supplier (Lonza, (Walkersville, Md.). THP-1 human monocyte cells were cultured in RPMI 1640 with 10% FBS and glutamine Cells were cultured in a humidified atmosphere with 5% CO2 at 370 C. For all studies passages 5-14 were used for RAW 264.7 and passages 5-10 were used for hPASMCs. For treatment studies, subconfluent cells plated in multi-well plates were serum starved and if required, pretreated for with inhibitors before stimulating with 2 μg/mL recombinant EMAP II.
as §1
RAW 264.7 (ATCC) mouse macrophages and HEK-293T (ATCC) cells were cultured in DMEM media with 10% (v/v) fetal bovine serum (FBS) and 2 mM glutamine HEPES buffer and beta-mercaptoethanol were added to the growth medium used for RAW 264.7 macrophages. Primary human pulmonary artery smooth muscle cells (hPASMC) purchased from Lonza (Walkersville, Md.) were cultured in complete growth medium containing smooth muscle growth media-2 (SmGM-2) with 10% FBS and growth factors provided as a kit by the supplier (Lonza, (Walkersville, Md.). THP-1 human monocyte cells were cultured in RPMI 1640 with 10% FBS and glutamine Cells were cultured in a humidified atmosphere with 5% CO2 at 37° C. For all studies passages 5-14 were used for RAW 264.7 and passages 5-10 were used for hPASMCs. For treatment studies, subconfluent cells plated in multi-well plates were serum starved and if required, pretreated with inhibitors before stimulation with 2 μg/mL recombinant EMAP II.
After appropriate treatments, protein lysates were prepared by using RIPA buffer supplemented with phosphatase and protease inhibitors (Thermo Fisher Scientific). Alpha-tubulin was used as a loading control. […] Western blots were performed according to standard methods and quantified using densitometry using Image Studio Lite software from LI-COR Biosciences.

[3] = system: SphK1; experiment: SphK1 protein western blot in hPASMC; format: cell-based, human; conditions: SMCs; EMAP II 6 hours
Protocol: (§3) RAW 264.7 (ATCC) mouse macrophages and Human Embryonic Kidney (HEK) 293T cells were cultured in DMEM media with 10% fetal bovine serum […] and glutamine HEPES buffer and beta-mercaptoethanol were added to the growth medium used for RAW 264.7 macrophages. […]
(§4) After appropriate treatments, protein lysates were prepared by using RIPA buffer supplemented with phosphatase and protease inhibitors (Thermo Fischer Scientific). […] Western blots were performed according to standard methods and quantified using densitometry using Image Studio Lite software from LI-COR Biosciences. […]
(§5) After appropriate treatments, protein lysates were prepared by using RIPA buffer supplemented with phosphatase and protease inhibitors (Thermo Fisher Scientific). […] Western blots were performed according to standard methods and quantified using densitometry using Image Studio Lite software from LI-COR Biosciences. […]

[4] = system: SphK1; experiment: SphK1 protein western blot in RAW 264.7 macrophages; format: cell-based, mouse
Protocol: as §3, §4
(§6) After appropriate treatments, protein lysates were prepared by using RIPA buffer supplemented with phosphatase and protease inhibitors (Thermo Fisher Scientific). […] Western blots were performed according to standard methods and quantified using densitometry using Image Studio Lite software from LI-COR Biosciences.

[5] = system: pSphK1 (Ser225); experiment: pSphK1 (Ser225) immunoblotting and immunofluorescence in hPASMC; format: cell-based, human; conditions: SMCs
Protocol: as §3, §4, §5

[6] = system: pERK1/2; experiment: pERK1/2 western blot time course in hPASMC; format: cell-based, human; conditions: SMCs
Protocol: as §2, §1
RAW 264.7 (ATCC) mouse macrophages and HEK-293T (ATCC) cells were cultured in DMEM media with 10% (v/v) fetal bovine serum (FBS) and 2 mM glutamine HEPES buffer and beta-mercaptoethanol were added to the growth medium used for RAW 264.7 macrophages. […]
as §6

[7] = system: hPASMC; experiment: WST-1 cell proliferation assay in hPASMC; format: cell-based, human; conditions: SMCs; EMAP II 2 μg/mL 48 hours
Protocol: (§7) Cell proliferation of hPASMCs was assessed using WST-1 cell proliferation reagent (Roche Diagnostic Corporation, IN) in a 96-well plate. Human PASMCs were seeded at 4200 cells/well density in 100 μl complete medium and serum starved for overnight. Cells were stimulated for 48 hours with 2 μg/mL EMAP II following the pretreatment with inhibitors. WST-1 reagent (10 μL) was added into each well and incubated for 90 minutes in a humidified atmosphere with 5% CO2 at 370 C. Absorbance was measured at 450 nm using microplate reader. Blank control well was with medium and WST-1 reagent without cultured cells. All samples were in duplicates. Cell proliferation was determined by subtracting the background reading from average of duplicate of each sample.
as §7, with “37°” for “370”, “Blank control well was with medium and WST-1 reagent without cultured cells. All samples were in duplicates.” left out

B1: EMAP II: 6x-His tagged recombinant EMAP II, cleaved C-terminal peptide of AIMP1 (SEQ ID NO: 2), pro-inflammatory cytokine (protein)
chain: IAGSADSKPIDVSRLDLRIGCIITARKHPDADSLYVEEVDVGEIAPRTVVSGLVNHVPLEQMQNRMVILLCNLKPAKMRGVLSQAMVMCASSPEKIEILAPPNGSVPGDRITFDAFPGEPDKELNPKKKIWEQIQPDLHTNDECVATYKGVPFEVKGKGVCRAQTMSNSGIK
STAT3 activation (pSTAT3) [1]: induced STAT3 activation
EGR1 expression in whole cell lysates ([2]; 1 to 2 hours following EMAP II): significant upregulation
upregulation of nuclear expression of EGR1 ([2]; EMAP II 2 μg/mL, at 2 hours): 9 fold
SphK1 protein expression [3]: significant overexpression; also recorded: significantly increased
protein expression of SphK1 compared to control ([4]; EMAP II treated macrophages): about 1.7 times
SphK1 protein expression ([4]; macrophages, EMAP II 6 hours): significant overexpression; also recorded: significantly increased
pSphK1 localization to the plasma membrane ([5]; immunostaining pSphK1 and actin, 15 minutes, 1 hour, 6 hours EMAP II): stimulated translocation; also recorded: trafficked to the plasma membrane; also recorded: increased pSPHK1 signal
SphK1 phosphorylation (pSphK1/Tubulin) ([5]; peaks at 1 and 6 hours of EMAP II): bi-modal SphK1 phosphorylation; also recorded: bimodal SPHK1 phosphorylation
earliest time pERK1/2 reached significance [6]: 3 minutes
time of pERK1/2 peak [6]: 3 minutes
ERK1/2 phosphorylation (pERK1/2) ([6]; 24-hour time course): bi-modal ERK1/2 activation; also recorded: induced pERK1/2
cell proliferation (WST1) [7]: promotes cell proliferation
